This note sets out measurements from the DeepSol protein solubility set.

The nature of this series: soluble on expression in E. coli; label from the status in PepcDB or PDB records.
Regarding “KQWVWSAESPIETNILKLLPKNQQNPVAEQAFESVSASMSDKVIFVITAPDKNALFAAAAEFDKGLRQSNHFRDVVGKISPQEQQAWASYYFKHRFQLLTPEQRERLSQNPEQQVQHVIQSLYNPFSGVTGQELQSDPFLLFRDYLSQVTQQSSSFRLDNGYLSVEKDGAQYLLITAELKESPYSLTGQLAVPDIQALEQSVAQKYGAEVAHTGVLFYADFGTQSAKSE”, the “soluble on expression in E. coli” value is given as “soluble”.
On to “MSLSKRNKPQESKEFGFQALKINGTYVSTDIMKEERNKFFEKYKRNADVLRMNDHERNDMLLDQVIERLLLEDYVNNKSGVTATDSEVEDYINRFIKPRYGDSLGTFMSSQGYTNEEEMKAGIKEYILKHKALYKAAKEKNVTLTEQELDEGYEKHKIQNKKVDIRHIFISSQERGKEEAKKLADEIYNRLKNNEDFETLAKQYSDDEKTKESGGVITELRAGFNEAVFDNAVFTAEAGQLLEPIEVARGYEIVYVDKVTEGHHHHHH”, for which the “soluble on expression in E. coli” value is reported as “soluble”.
On to “MFAMTSIAVIGGGKIGEALISGLVASGMSPKDIHVTNRNAERAQELKERYGVLTFLENIAAVDDVDMVFLCVKPQQVIPVVEEIADVVDNNTSTTIVSMAAGVTNAMIEESLAAGSPVIRVMPNTPMLVGKGMSVVAPGRYADEDTVASLTQLLEAVGSVEVIEESSMDAVVALSGSSPAYLFLMVEALIDAGVFLGLPRDKAKNLAVSSFAGAATMLEQTGEEPAVLRANVSSPGGTTIAAIREFEESGLRAAVYRAATAAATRNSSLG”, for which the “soluble on expression in E. coli” value is given as “not soluble”.
As for “MRYWKNSRIKMFEQEDEWISKTQMKKQMNDLQDLGMALTKLSNDTLKKIGLDADLYEAVTAYKKITSNGALKRQAQFIGRLMRDTDPAPIEAFLAKLRGDDAAHNAFLQRVEQARVRLLADDGALTQFMSDFPHADAGKLRTLIRNTKKEQEQNKPPKNFRALFQELKTVMENGDAEI”, the “soluble on expression in E. coli” value is “not soluble”.
Turning to “MAHHHHHHMIGLKSMAGVRDVVRGGSWPARLLDMFTSRAAQESFEFEAVVTDACAAANVPVPSEADLPHARWWKKLCRACQDKAGTTKHGSQLLRSRLTNALTQRLAVEEVYRLNGGEIAKEPAVENPIVIMGLPRSNGHMAAHVLARSGLFLTPRQCDTLSPSLLLDVERRDAFRKKFRGFSYLHPDFLCVRVPQADQVDDDLTLHLMTPQSYAWGLLHGLDEYLLECLEEDQLPVYSEVRRVMELLQWYRKCGHFSEPVTREFNPIDNAMELQAYGTKNVLLRPQWLLYSPFAILSPDAVNTAFPKMKAIWVHRALSQCLPSLCSALCLHNTLYTGKPPSDSQLASMGEKVLGIFGSGTAYAIEYYGKFDQRRMAHWSNRDVKRHATRVATKTLDYFSVELDRYRRMQMISGQTEYVSVSRPLHDAQMPYFCLHDGIIGDVFQDYIYQFAEFAFEKKFGITVKEYTPLAAPADAMAMRGIAHGSSEPRSAPALGAGQPMVGHFQQERRGFR”, the “soluble on expression in E. coli” value was “not soluble”.
Turning to “MSTDLRALLEQARQQGDYTALLEQIPYAKLIGIECTQLGDELLFRLPANKDNIGNPLLPALHGGVIAGFMELAAALHLLILTGSPGVPKIIDFSLDYLRAGQFRDTFARCQVCRQGRRVANVAITAWQSTAEESIATARAHFKIEESTGPLEHHHHHH”, the “soluble on expression in E. coli” value is “soluble”.
Turning to “MGSDKIHHHHHHMFISDVHLGSKAAKADFLIDFLRYHDADIIYLVGDIVDGWRLRRSWHWPQSHNDVVQKLLRKARKGASITYIAGNHDEFARQFQGVHFGGIVVADRAIHETADGKRLLVIHGDQFDTVVHNQRWLAYLGDHAYDAAMIVNRVVTRLRQLLGLPYWSFSSWAKVKVKKAVNFIGSFQTVLTEEARRSHVDGVICGHIHHAAIENFDDVRYINTGDWVESCTAVVEHFDGRMEILTWAQVLPESFDEPFIPMLIEDRVGQAA”, the “soluble on expression in E. coli” value was “not soluble”.
Consider “MGSDKIHHHHHHMSNRLSVVMIAKNAADLLPDCLGSVSWADEIIVLDSGSTDNTVELARRLGAQVYTHTDWRGYGIQRQRAQDYATGDWVLMIDTDERVTPELRQAILKVLDAPQRGAIYSIARRNYFLGRFMRHSGWYPDRVLRLYERARYRYNDNLVHESLDSLGAEVIPLTGDLLHLTCRDFAGFQQKQLAYAAAWALERHQKGKKTSMAGIFSHTLGAFLKTLLLRGGVLDGKQGWLLAMVNAQYTFTKYTELWALSHGYSEKESS”, for which the “soluble on expression in E. coli” value was “not soluble”.
Consider “GMEQATRTIYSEYAAYPETQGIIAVEKRQPRDSLTDQFDVLLLVITRDPSVEWTVKHYRLNTLRVSLHLVHEQVLSRWLILNANRRAVHWVSEGTIIFERNDYLTDLKKQLRNFPETERCLQMSLSFAKLLRRFQDGRNLFSRGNYYDAYTHVHHALHHLARLSVLEKGAHPEVVVWEQARLDDPDVYKLYEQLLLSEETLEQRIHLALIGLEHLLQSKVLSGGKYLFEVMRERDRPWTMHELMEESRLTELKVDLGSLVDFFIRKGLIRISYQRTKGLGVELVTYEPVV”, for which the “soluble on expression in E. coli” value is listed as “soluble”.
Take “MGSDKIHHHHHHMTHSTDITTLARWFAADFSNQQQAFDNPPLFAHIRVCMRPLPYQLLNGLSLYLEQAYDITLNQPYRVRVLKLVPSENHIEIENYIIDQEAEFYGASRDPQRLKNLKTEYIKKLPGCTFITKWTGKSFKGEVEPGKGCTVVREGKSTYLKSYFEINEHKFISHDTGYDPETDQQVWGAIAGPFEFVRWASFADEVI”: the “soluble on expression in E. coli” value is listed as “not soluble”.
With “MLEADDQGCIEEQGVEDSANEDSVDAKPDRSSFVPSLFSKKKKNVTMRSIKTTRDRVPTYQYNMNFEKLGKCIIINNKNFDKVTGMGVRNGTDKDAEALFKCFRSLGFDVIVYNDCSCAKMQDLLKKASEEDHTNAACFACILLSHGEENVIYGKDGVTPIKDLTAHFRGDRSKTLLEKPKLFFIQACRGTELDDGIQADSGPINDTDANPRYKIPVEADFLFAYSTVPGYYSWRSPGRGSWFVQALCSILEEHGKDLEIMQILTRVNDRVARHFESQSDDPHFHEKKQIPCVVSMLTKELYFSQ”, the “soluble on expression in E. coli” value is recorded as “soluble”.
Take “RPHVVKVYSEDGACRSVEVAAGATARHVCEMLVQRAHALSDETWGLVECHPHLALERGLEDHESVVEVQAAWPVGGDSRFVFRKNFA”: the “soluble on expression in E. coli” value is given as “soluble”.
For the sequence “MAHHHHHHMRVRHKVRNAVLLKGGEADTVKPLFLLNKIKNRKLQKRNNVTLHMDNSNEDTSRLSLLKNLDDESKVITQSPEWNEKMPLLEITNLHAMEVEGGKEILKGINLTIFLGEKHTIMGRNGSGKSTLAKVIAGHPYYKVTSGTIKFKGLNLSELPVNVRSLCGIFLAFQYPVELPMVKNNEFLRAALNSHRRQRNEPEISATEFDLLMIEEIKKVGLSSEFLDRPVNYGFSGGEKKRNEILQMLILKPSFCILDETDSGLDVDSFKLTSNVITNFSNEKNSFLIVTHYKKLLELLRPNFIHIMHQGKIIESGDYSLVDKIEAKGYAQFVKDS”, the “soluble on expression in E. coli” value was “not soluble”.
On to “MSAPINKVLIADDIEQECVDILKQNGIEVTVKTKQTKDELLVTLPQHDAVIVRSATKITAELLAASAGKLKLVGRAGTGVDNIDVPAASANKILVMNTPQANSRSAAELTCTLILSLSRHVPQAAASMKAGKWARKDFMGEEVYGRTLAVLGLGRIGSEVAVRLQAFGMKVIGFDPMVTKEQAEAKNIELLSLEQIWPQADYITVHVPLIKQTENLINKETLAKCKKGVRIINVARGGIVNEVDLVESLNAGHAKGAAFDVFEQEPPTFRELIDHPLVIATPHLGASTIDAQLRVASEIADNIVQYNKGTMLGVLNAREVLN”, for which the “soluble on expression in E. coli” value is given as “not soluble”.
For “MGSDKIHHHHHHMIDLHCHILSGIDDGAQTITDSLAMAQQAVAEGIHTIVATPHHQNGKYVNERASIIHQVKQLNDELQQHEIPLKVLPGQEVRLYGGLLEDYEAGKIVTLNETNKYIFIEFPSNHVPRYTEQLFYELRVKGMIPIIVHPERNAELIERPDKLYNLVNKGALTQVTAGSLLGKFGKKIKRFSLQLVEHNLTHMIASDAHNTTSRGFHLEESYELIEKEFGTTVMNDLRENPYLIISGKAIYKEDPEQIRRKKLFGIF”, the “soluble on expression in E. coli” value was “not soluble”.
For “MTEHRPAIELEEIPTLLERIEGYKGRSRLTQLAIKLNLLIFIRSSELRFARWSEIDFKSGLWVIPEQREAIKGIKHSDRGAKMRRKHYVPLCEQALVILGELKDLTYDVNGDDGFILTGCYDAMKPMSENTINKALRKMGYDTKTDLCGHGFRTLACSALIESGIWPEDVVELQMSHMEKNNVRAAYTHKAKHLEQRRLMLQWWADFLDANGSGMVRPFEFAQGATQYLEHHHHHH”, the “soluble on expression in E. coli” value is reported as “not soluble”.
Consider “KKPEGKPDQKFDQKQELGRVIHLSNLPHSGYSDSAVLKLAEPYGKIKNYILMRMKSQAFIEMETREDAMAMVDHCLKKALWFQGRCVKVDLSEKYKKLV”, for which the “soluble on expression in E. coli” value was “soluble”.
Regarding “MGSDKIHHHHHHLTDAEIDASFNPYQAGPTTSPGITPGMKIDKSNAQKFRDIIDPATYALIEQGKLEFPVEETHSIALHPNYIAATKKHSSQVKLGSATGTIEGYVAGRPFPGKPDKSDPRAGEKLAFNYKYAQIVGDSGRIYPFIWQYKDARSGKVERQLEFDFNFLSFKHRTTQLPTADIEPNPSKFYRGIYLKVLSPQDLKNTQLLIQRFDDDTKLDDSYLYLGFQRRVRRLATGQTTDSFLGSDLMIEDFEGYNGRVPDMDWKYVETKVMLLPVYRHSEWKKTEPRDQMGYGQVQFDGQAQCFQNIPWSLRVVHVIEGVPVESRNPIGKRILYMDAQTSIFPIINMYDRKGALWKRWAIGFSDSAYHAPANQAAGIAIYTSASMLDVQAQHCTTLQLRMISDPALSPPSIFSVQNLRGGD”, the “soluble on expression in E. coli” value is “not soluble”.
Consider “MGSDKIHHHHHHMKKTIYKVLVSFYQYVGLGKKFHPSHDTVLIIGGSSNELGIELCETFIEDYHTKVINIDTIDSINGKNARRSEKLYTFISCKDFSDIKCLEESMLYLQNLEIIPTVLINNMQEGIESTLLKEDKFLRLDEESLNEFEKIVRYNLQSVILITKFCLSNIFPKVQAEAQEKAKGFYIVNISSVLTLKPCKSGTHFITSKCGINSFHDGITSELKLKDSNLNVKTLIAYLPSFESEAHWKRLSPSISKHLVHCLLEGRYGDTILESKRSIGDILLITGFKSSFT”, for which the “soluble on expression in E. coli” value is “not soluble”.
“MQEIIFIDGGSLPTPEGFTREWVKAAAESRTEDQKLFSLVSDAFQRKIDAGVHVPTYPQFRDMIGQFLDIIRDEKNCYEPYVLKEENAKILELEIIDEVAKQYRERTGKTLEVRVCVAGPTDLYLQAFGATAFSDAYHIMALNIENFIKQAFKAAKNFKIKVIALDEPSLGMNDKIQFSDLDIVSALTLASTYARKQGADVEIHLHSPLKYKLICETPINVMGFEYAATPSYIDLMDKKILEDSNTYIRLGVSRTDISSLIGMVNETYGVNAWKEKEYMQKIVTELETPDIIQKRLEKACSILGDRIKYASPDCGLAFWPDQELAFRLLENTAKGINAFNAEMKDLLEHHHHHH”: the “soluble on expression in E. coli” value is recorded as “not soluble”.
Consider “MGSDKIHHHHHHLEAGMNYGVWNNKGGVGKSFLSFTLALEHAHRHPERKILLADMCPQANLSEIILGGNGKGNANLEARLAQDKRKTIGGYFDERIASPHQVTGNETSYLIAASDYNQELPDNVYLLCGDPSLELQAQVINQIGSQTLPADAWKNVHMWLKDLINACARQLGREGTSVFIDCNPSFSAYTELAIVASDRLILPCSCDGSSARAVHNVENLVFDGSAYYGDKSFSKMCERFGMALPVIHSVVLNRSTLYNKDASKAFSAMFDEIKRTANDFYKRSPGSFVAGGPAFMVMPDNHSVAIVSSHLGKPLYAIKPGKYQVYEVNPQINPEPLNRYKEAIEGMEAVLL”, for which the “soluble on expression in E. coli” value is “not soluble”.
“MGKEYPYGLLRCFVRRIGKPTDSPRMTSAPTSNQSNPAWSRDELVLALNLYLLHRNGLPGVNHPDVLALSQALNLIGNATGVSKNQSFRNANGVCMKLNNFRRWDPSYTNNGRTGLAKGNKDEQLVWLEFANDPERLAEVVAAINANVQMIPASPIDLSAADDPGFFEAEEGKVLTRVHRVRERDKKIVKRKKEEALTQHGALQCEACGFNFSQTYGADVEGVIDVHHTKPLHTLQPGDKTKLADLALLCANCHRVLHSQRKWLSVAEVKERYQANLKQIQMLEHHHHHH”: the “soluble on expression in E. coli” value is given as “soluble”.
